# Data as given in PMC3905071.
# Tests used:
# [1] = target: YB-1 (WT) (UniProt P67809 1-324); experiment: EMSA and filter binding
# [2] = target: YB-1 (1-219), truncated (UniProt P67809 1-219); experiment: EMSA and filter binding
# Chain of YB-1 (1-219), truncated (P67809 1-219): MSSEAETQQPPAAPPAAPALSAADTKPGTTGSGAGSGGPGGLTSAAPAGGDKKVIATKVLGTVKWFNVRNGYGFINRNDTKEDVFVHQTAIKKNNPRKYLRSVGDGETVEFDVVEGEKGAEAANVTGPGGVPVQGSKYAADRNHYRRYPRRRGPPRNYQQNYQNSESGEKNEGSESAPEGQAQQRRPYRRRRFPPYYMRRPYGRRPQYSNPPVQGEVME
# Chain of YB-1 (WT) (P67809 whole entry, the tested form may be a part): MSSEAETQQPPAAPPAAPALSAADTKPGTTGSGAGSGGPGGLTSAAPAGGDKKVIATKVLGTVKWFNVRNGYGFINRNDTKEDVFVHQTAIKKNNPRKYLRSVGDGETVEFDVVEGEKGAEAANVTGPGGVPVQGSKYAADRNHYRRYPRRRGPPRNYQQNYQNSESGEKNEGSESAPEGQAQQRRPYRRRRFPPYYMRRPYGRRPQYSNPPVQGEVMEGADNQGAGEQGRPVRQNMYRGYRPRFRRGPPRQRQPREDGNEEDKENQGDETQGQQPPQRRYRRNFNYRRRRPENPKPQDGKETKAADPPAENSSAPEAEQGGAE
binder,measurement,setting,value
AAACTGATTGGCCAAAAA (ssDNA) [18-nt Y-box ssDNA],binding result,[1],binds
same,binding result,[2],binds
